# Source: patent US20240174748A1 (INNATE PHARMA, published 2024)
# Target: T1, Cynomolgus NKp46 (Macaca fascicularis (cynomolgus), UniProt Q95JB9 22-254)
# T1 construct: also called cynomologus NKp46; macaca fascicularis NKp46
# Experiment: not stated (human IgG1)
# T1 sequence (Q95JB9 22-254): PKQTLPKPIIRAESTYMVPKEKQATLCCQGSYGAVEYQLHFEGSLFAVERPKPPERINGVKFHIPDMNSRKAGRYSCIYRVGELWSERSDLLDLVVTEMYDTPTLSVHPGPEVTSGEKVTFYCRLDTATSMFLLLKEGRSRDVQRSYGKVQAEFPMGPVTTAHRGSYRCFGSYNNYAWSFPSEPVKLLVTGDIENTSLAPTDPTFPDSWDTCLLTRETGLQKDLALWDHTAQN
row,fold lower affinity for cynomolgus NKp46 than for human NKp46,Binder
1,10 fold,"NKp46-4 H2L2 (antibody, human IgG1, V domains shown, Produced as human IgG1) VH: QVQLVQSGAEVKKPGASVKVSCKASGYTFTSFTMHWVRQAPGQGLEWIGYINPSSGYTEYNQKFKDRTTITADKSTSTAYMELSSLRSEDTAVYYCVRGSSRGFDYWGQGTLVTVSS VL: DIQMTQSPSSLSASVGDRVTITCRASENIYSNLAWFQQKPGKAPKLLVYAATNLADGVPSRFSGSGSGTDYTLTISSLQPEDFATYYCQHFWGTPRTFGGGTKVEIK"
2,10 fold,"NKp46-4 H3L2 (antibody, human IgG1, V domains shown, Produced as human IgG1) VH: QVQLVQSGAEVKKPGASVKVSCKASGYTFTSFTMHWVRQAPGQGLEWIGYINPSSGYTEYNQKFKDRTTLTADKSTSTAYMELSSLRSEDTAVYYCVRGSSRGFDYWGQGTLVTVSS VL: DIQMTQSPSSLSASVGDRVTITCRASENIYSNLAWFQQKPGKAPKLLVYAATNLADGVPSRFSGSGSGTDYTLTISSLQPEDFATYYCQHFWGTPRTFGGGTKVEIK"
